Kd, koff and kon data for 16 molecules are collected here from patent publication US20230041071A1 (NATIONAL INSTITUTE OF BIOLOGICAL SCIENCES BEIJING, published 2023).

The target of test [1] is T1, hAREG-EGFd-mFc (human; mouse, UniProt P15514 142-184).
T1 construct: Expressed in 293F cells; not shown: Fc fragment of mouse IgG2a
T1 chain: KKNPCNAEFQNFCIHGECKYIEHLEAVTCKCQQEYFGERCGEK
Description: SPR, Biacore T200; mAb captured on anti-human Fc chip, antigen in solution. The protocol: (§1) To evaluate affinities of different mouse hybridoma mAbs or their humanized and engineered variants, SPR measurement was performed using Biacore T200 instrument. mAbs were captured on anti-human Fc CM5 biosensor chip surface, hAREG-EGFd-mFc, mAREG-EGFd-mFc or hAREG-98aa (purchased from PeproTech, cat #100-55B) in serial dilutions were injected over antibody-bound surface, followed by a dissociation phase. Association rates (Ka) and dissociation rates (Kd) were calculated using the one-to-one Langmuir binding model (BIA Evaluation Software, GE Life Sciences). The equilibrium dissociation constant (KD) was calculated as the ratio kd/ka.
Background: SPR reads the build-up and loss of mass on a sensor chip optically.

Test [2] addresses T2, hAREG-98aa (human, UniProt P15514 101-198).
T2 construct: Bought protein
T2 sequence (looked up): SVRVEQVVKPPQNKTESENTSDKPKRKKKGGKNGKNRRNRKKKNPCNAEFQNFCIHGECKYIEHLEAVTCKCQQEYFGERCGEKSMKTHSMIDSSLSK
The test is described as above. As to the method:
as §1

B1: ch23H8 (antibody, V domains shown)
VH: EVQLQESGGGLVKPGGSLKLSCAASGFTFNSYAMSWVRQTPEKRLEWVATISTGGSHTYYPDSVKGRFTISRDNAKNTLYLQMSSLRSEDTAMYYCARHGYLLYDGYYEWYFDVWGAGTTVTVSS
VL: DIVLTQSPASLAVSLGQRATISCKASQSVDYDGHSFLNWYQQKPGQPPKLLIYAASNLESGLPARFSGSGSGTDFTLNIHPVEEEDAATYYCQQSTEDPPYTFGGGTKLEIK
notes: also called chimeric 23H8
As a reminder, the Kd is the constant that tells how readily two partners part at equilibrium. As usually defined, the koff is the first-order rate constant of dissociation. Low readings indicate slow dissociation, high ones fast dissociation. For orientation: kon means the second-order rate constant of association. Higher therefore signals faster complex formation. In test [1], B1 returned a Kd of 0.75 nM, a koff of 0.000313 s⁻¹ and a kon of 418000 M⁻¹ s⁻¹.

B2: hu23H8v1 (antibody, V domains shown)
VH: EVQLVESGGGLVKPGGSLRLSCAASGFTFNSYAMSWVRQAPGKGLEWVSTISTGGSHTYYPDSVKGRFTISRDNAKNSLYLQMNSLRAEDTAVYYCARHGYLLYDGYYEWYFDYWGQGTLVTVSS
VL: DIVLTQSPASLAVSPGQRATITCRASESVDYDGHSFINWYQQKPGQPPKLLIYAASNKDTGVPARFSGSGSGTDFTLTINPVEAEDTANYYCQQSTEDPPYTFGQGTKLEIK
notes: Humanized 23H8; captured by anti-human Fc in SPR
In test [1], B2 registered a Kd of 0.205 nM, a koff of 0.000214 s⁻¹ and a kon of 1.05e+06 M⁻¹ s⁻¹.

B3: hu23H8v2 (antibody, V domains shown)
VH: EVQLVESGGGLVKPGGSLRLSCAASGFTFNSYAMSWVRQAPGKGLEWVSTISTGGSHTYYPDSVKGRFTISRDNAKNSLYLQMNSLRAEDTAVYYCARHGYLLYDGYYEWYFDYWGQGTLVTVSS
VL: DIQMTQSPSSLSASVGDRVTITCRASQSVDYDGHSFLNWYQQKPGKAPKLLIYAASNLQSGVPSRFSGSGSGTDFTLTISSLQPEDFATYYCQQSTEDPPYTFGQGTKLEIK
notes: as for B2
As to B3, in test [1], the Kd is 0.244 nM, the koff came to 0.000249 s⁻¹ and the kon worked out at 1.02e+06 M⁻¹ s⁻¹.

B4: hu23H8v3 (antibody, V domains shown)
VH: EVQLVESGGGLVKPGGSLRLSCAASGFTFNSYAMSWVRQAPGKGLEWVSTISTGGSHTYYPDSVKGRFTISRDNAKNSLYLQMNSLRAEDTAVYYCARHGYLLYDGYYEWYFDYWGQGTLVTVSS
VL: DIVMTQSPDSLAVSLGERATINCKSSQSVDYDGHSFLNWYQQKPGQPPKLLIYAASNRESGVPDRFSGSGSGTDFTLTISSLQAEDVAVYYCQQSTEDPPYTFGQGTKLEIK
notes: as for B2
Regarding B4, in test [1], the affinity, expressed as Kd, was 0.178 nM; the koff turned out to be 0.000213 s⁻¹; the kon turned out to be 1.2e+06 M⁻¹ s⁻¹.

B5: hu23H8v6 (antibody, V domains shown)
VH: EVQLVESGGGLVKPGGSLRLSCAASGFTFSSYAMSWVRQAPGKGLEWVSTISTGGSHTYYPESVKGRFTISRDNAKNSLYLQMNSLRAEDTAVYYCARHGYLLYEGYYEWYFDYWGQGTLVTVSS
VL: DIVMTQSPDSLAVSLGERATINCKSSQSVDYEGHSFLNWYQQKPGQPPKLLIYAASNRESGVPDRFSGSGSGTDFTLTISSLQAEDVAVYYCQQSTENPPYTFGQGTKLEIK
notes: Humanized 23H8 variant
In test [1], B5 gave a dissociation constant (Kd) of 0.309 nM, a koff of 0.000246 s⁻¹ and a kon of 803000 M⁻¹ s⁻¹. In test [2], binding was put at a Kd of 0.537 nM and the kon turned out to be 1.11e+06 M⁻¹ s⁻¹.

B6: hu23H8v5 (antibody, V domains shown)
VH: EVQLVESGGGLVKPGGSLRLSCAASGFTFSSYAMSWVRQAPGKGLEWVSTISTGGSHTYYPESVKGRFTISRDNAKNSLYLQMNSLRAEDTAVYYCARHGYLLYEGYYEWYFDYWGQGTLVTVSS
VL: DIQMTQSPSSLSASVGDRVTITCRASQSVDYEGHSFLNWYQQKPGKAPKLLIYAASNLQSGVPSRFSGSGSGTDFTLTISSLQPEDFATYYCQQSTENPPYTFGQGTKLEIK
notes: Humanized 23H8 variant
In test [1], B6 displayed a Kd of 0.565 nM, a koff of 0.000348 s⁻¹ and a kon of 628000 M⁻¹ s⁻¹.

B7: hu23H8v4 (antibody, V domains shown)
VH: EVQLVESGGGLVKPGGSLRLSCAASGFTFSSYAMSWVRQAPGKGLEWVSTISTGGSHTYYPESVKGRFTISRDNAKNSLYLQMNSLRAEDTAVYYCARHGYLLYEGYYEWYFDYWGQGTLVTVSS
VL: DIVLTQSPASLAVSPGQRATITCRASESVDYDGHSFINWYQQKPGQPPKLLIYAASNKDTGVPARFSGSGSGTDFTLTINPVEAEDTANYYCQQSTEDPPYTFGQGTKLEIK
notes: Humanized 23H8 variant; captured by anti-human Fc in SPR
In test [1], B7 had a Kd of 0.336 nM, a koff of 0.000276 s⁻¹ and a kon of 821000 M⁻¹ s⁻¹.

B8: ch1H9 (antibody, V domains shown)
VH: EVKLMESGGDLVKPGGSLKLSCVASGFTFSGYPMSWVRQTPEKRLEWVATISTGARHTYYPDSVKGRFTISRDNAKNTLYLQMSSLRSEDTAMYYCARHEGLRRGKYHCIMDYWGQGTSVTVSS
VL: DILLTQSPASLAVSLGQRATISCKASQSIDYDGDSFLNWYQQKPGQPPKLLIYAASNLESGIPARFSGSGSGTDFTLNIHPVEEEDAATYYCHQCNEDPYMFGGGTKLEIR
notes: also called chimeric 1H9
For B8, in test [1], binding was characterised by a dissociation constant (Kd) of 1.31 nM.

B9: hu1H9v1 (antibody, V domains shown)
VH: EVQLVESGGGLVKPGGSLRLSCAASGFTFSGYPMSWVRQAPGKGLEWVSTISTGARHTYYPDSVKGRFTISRDNAKNSLYLQMNSLRAEDTAVYYCARHEGLRRGKYHSIMDYWGQGTLVTVSS
VL: DIVLTQSPASLAVSPGQRATITCRASESVDYDGDSFINWYQQKPGQPPKLLIYAASNKDTGVPARFSGSGSGTDFTLTINPVEAEDTANYYCHQSNEDPYMFGQGTKLEIK
notes: Humanized 1H9; captured by anti-human Fc in SPR
On to B9, for which, in test [1], the Kd was determined as 0.799 nM, the koff was 0.000233 s⁻¹ and the on-rate (kon) was found to be 291000 M⁻¹ s⁻¹.

B10: hu1H9v4 (antibody, V domains shown)
VH: EVQLVESGGGLVKPGGSLRLSCAASGFTFSGYPMSWVRQAPGKGLEWVSTISTGARHTYYPDSVKGRFTISRDNAKNSLYLQMNSLRAEDTAVYYCARHEGLRRGKYHSIMDYWGQGTLVTVSS
VL: DIQMTQSPSSLSASVGDRVTITCRASQSIDYDGDSFLNWYQQKPGKAPKLLIYAASNLQSGVPSRFSGSGSGTDFTLTISSLQPEDFATYYCQQSNEDPYVFGQGTKLEIK
notes: as for B9
In test [1], B10 displayed a Kd of 0.758 nM, a koff of 0.000184 s⁻¹ and a kon of 243000 M⁻¹ s⁻¹.

B11: hu1H9v5 (antibody, V domains shown)
VH: EVQLVESGGGLVKPGGSLRLSCAASGFTFSGYPMSWVRQAPGKGLEWVSTISTGARHTYYPDSVKGRFTISRDNAKNSLYLQMNSLRAEDTAVYYCARHEGLRRGKYHSIMDYWGQGTLVTVSS
VL: DIVMTQSPDSLAVSLGERATINCKSSQSIDYDGDSFLNWYQQKPGQPPKLLIYAASNRESGVPDRFSGSGSGTDFTLTISSLQAEDVAVYYCQQSNEDPYVFGQGTKLEIK
notes: as for B9
In test [1], B11 had an equilibrium dissociation constant (Kd) of 0.811 nM, an off-rate constant (koff) of 0.000206 s⁻¹ and a kon of 254000 M⁻¹ s⁻¹.

B12: hu1H9v3 (antibody, V domains shown)
VH: EVQLVESGGGLVKPGGSLRLSCAASGFTFSGYPMSWVRQAPGKGLEWVSTISTGARHTYYPDSVKGRFTISRDNAKNSLYLQMNSLRAEDTAVYYCARHEGLRRGKYHSIMDYWGQGTLVTVSS
VL: DIVLTQSPASLAVSPGQRATITCRASESVDYDGDSFINWYQQKPGQPPKLLIYAASNKDTGVPARFSGSGSGTDFTLTINPVEAEDTANYYCHQSNEDPYVFGQGTKLEIK
notes: Humanized 1H9
Regarding B12, in test [1], binding was put at a Kd of 0.969 nM, the koff is 0.000259 s⁻¹ and the association rate constant (kon) came to 267000 M⁻¹ s⁻¹.

B13: hu1H9v2 (antibody, V domains shown)
VH: EVQLVESGGGLVKPGGSLRLSCAASGFTFSGYPMSWVRQAPGKGLEWVSTISTGARHTYYPDSVKGRFTISRDNAKNSLYLQMNSLRAEDTAVYYCARHEGLRRGKYHSIMDYWGQGTLVTVSS
VL: DIVLTQSPASLAVSPGQRATITCRASESVDYDGDSFINWYQQKPGQPPKLLIYAASNKDTGVPARFSGSGSGTDFTLTINPVEAEDTANYYCHQSNEDPYLFGQGTKLEIK
notes: as for B9
In test [1], B13 showed a Kd of 0.762 nM, an off-rate (koff) of 0.000229 s⁻¹ and a kon of 301000 M⁻¹ s⁻¹.

B14: hu9C12v1 (antibody, V domains shown)
VH: EVQLVESGGGLVKPGGSLRLSCAASGFTFSSYPMSWVRQAPGKGLEWVSTISTGGTYTYYPDSVKGRFTISRDNAKNSLYLQMNSLRAEDTAVYYCARQGPIYYGNYYYAMDYWGQGTTVTVSS
VL: DIVMTQSPLSLPVTLGQPASISCRSSQSLVHSDGNTYLHWYQQRPGQSPKLLIYKVSNRFSGVPDRFSGSGSGTDFTLKISRVEAEDVGVYYCSQSTHVPYTFGGGTKVEIK
notes: Humanized 9C12; captured by anti-human Fc in SPR
As for B14, in test [1], the Kd was determined as 1 nM, the koff was found to be 0.000572 s⁻¹ and the kon came out at 570000 M⁻¹ s⁻¹.

B15: ch9C12 (antibody, V domains shown)
VH: EVKLVESGGGLVKPGGSLKLSCAASGFTFSSYPMSWVRQTPEKRLEWVATISTGGTYTYYPDSVKGRFTISRDNAKNTLYLQMSSLRSEDTAMYYCARQGPIYYGNYYYAMDYWGQGTSVTVSS
VL: DIVMTQPPLSLPVSLGDQASISCRSSQSLVHSDGNTYLHWYLQRPGQSPKLLIYKVSNRFSGVPDRFSGSGSGTDFTLKISRVEAEDLGVYFCSQSTHVPYTFGGGTKLEIK
notes: also called chimeric 9C12
In test [1], B15 came in with a Kd of 1.71 nM, a koff of 0.001 s⁻¹ and an on-rate constant (kon) of 587000 M⁻¹ s⁻¹.

B16: hu9C12v5 (antibody, V domains shown)
VH: EVQLVESGGGLVKPGGSLRLSCAASGFTFSSYPMSWVRQAPEKGLEWVSTISTGGTYTYYPDSVKGRFTISRDNAKNSLYLQMNSLRAEDTAVYYCARQGPILRKNYYYGMDVWGQGTTVTVSS
VL: DVVMTQSPLSLPVTLGDPASISCRSSQSLVDGQDGTYLHWYQQRPGQSPKLLIYKVSNRFDGVPDRFSGSGSGTDFTLKISRVEAEDVGVYYCSQSTHVPYTFGQGTKLEIK
notes: Humanized 9C12 variant; captured by anti-human Fc in SPR
In test [1], B16 returned a Kd of 0.852 nM, an off-rate (koff) of 0.000411 s⁻¹ and an association rate constant (kon) of 483000 M⁻¹ s⁻¹. In test [2], this molecule displayed a Kd of 0.349 nM, a koff of 0.00283 s⁻¹ and a kon of 8.11e+06 M⁻¹ s⁻¹.
